US20110251266A1

Molecular target: Human NGF (manufactured by R&D Systems) (human) (UniProt P01138)
Test: cell-based or functional assay

Human NGF (manufactured by R&D Systems) (human), sequence (P01138 122-241 limits assumed): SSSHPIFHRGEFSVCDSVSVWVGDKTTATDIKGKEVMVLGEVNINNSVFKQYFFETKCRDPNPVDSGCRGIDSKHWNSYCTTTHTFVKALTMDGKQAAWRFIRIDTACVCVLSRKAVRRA

## anti-NGF antibody (MAB2561, R&D Systems)
  inhibitory activity (neurite outgrowth of PC-12 cells): > 50%
